# Positions count from the first letter of the chain named. Like-named read-outs stand apart in the source and are kept apart here. No end group written: not given here.
# T1: AP33 mimotope peptide H6
# T1 construct: captured on streptavidin plates; also called mimotope H6; H6 peptide
# T1 peptide: VELRNLGGTWRPGSGK-biotin
# T2: E2 peptide C2 (Hepatitis C virus, genotype 1a (Table 5), not fully specified (residue 16, C-terminus))
# T2 peptide: QLINTNGSWHVNGSGK
# B1: humanized AP33 antibody RHb-h/RK2bc (antibody, V domains shown)
# VH: QVQLQESGPGLVKPSETLSLTCTVSGDSITSGYWNWIRQPPGRALEYMGYISYSGSTYYNLSLRSRITISRDTSKNQYSLRLSSVTAADTAMYYCALITTTTYAMDYWGQGTTVTVS
# VL: EIVLTQSPSSLSASVGDRVTITCRASESVDGYGNSFLHWFQQKPGKAPKLLIYLASNLNSGVPSRFSGSGSRTDFTLTISSLQPEDFATYYCQQNNVDPWTFGQGTKLEIK
# notes: also called RHbcdefgh/RK2bc
# B2: humanized AP33 antibody RH-C/RK2bc (antibody, V domains shown)
# VH: QVQLQESGPGLVKPSETLSLTCTVSGDSITSGYWNWIRQPPGRALEWMGYISYSGSTYYNLSLRSRITISRDTSKNQYSLRLSSVTAADTAMYYCALITTTTYAMDYWGQGTTVTVSS
# VL: B1 VL
# B3: RHb-h/Vl (humanized heavy chain RHb-h with chimeric light chain) (antibody, V domains shown)
# VH: B1 VH
# VL: NIVLTQSPVSLAVSLGQRATISCRASESVDGYGNSFLHWFQQKPGQPPKLLIYLASNLNSGVPARFSGSGSRTDFTLTIDPVEADDAATYYCQQNNVDPWTFGGGTKLEIK
# notes: also called RHb-h/V1
# B4: AP33 RH-B/RK2bc (antibody, V domains shown)
# VH: B2 VH with T30S, W47Y
# VL: B1 VL
# notes: COS7 supernatant
# B5: humanized AP33 antibody RH-H/RK2bc (antibody, V domains shown)
# VH: B1 VH with L97R
# VL: B1 VL
# Assays:
# Assay in all cases: peptide ELISA: biotinylated peptide on streptavidin plate, COS7 supernatant, anti-human kappa HRP, OD 655 nm
# AP33 mimotope peptide H6 [1] = target: T1, AP33 mimotope peptide H6
# E2 peptide B1 [2] = target: T3, E2 peptide B1 (Hepatitis C virus, genotype 2b (Table 5))
# Peptide D3 [3] = target: T4, Peptide D3
# T4 construct: member of the group m28
# AP33 mimotope peptide H6 [4] = target: T1, AP33 mimotope peptide H6
# E2 peptide B1 [5] = target: T3, E2 peptide B1; remark: listed apart in the source
# Peptide D3 [6] = target: T4, Peptide D3; remark: listed apart in the source
# AP33 mimotope peptide H6 [7] = target: T1, AP33 mimotope peptide H6
# E2 peptide C2 [8] = target: T2, E2 peptide C2
# E2 peptide B1 [9] = target: T3, E2 peptide B1; remark: listed apart in the source
# Peptide D3 [10] = target: T4, Peptide D3; remark: listed apart in the source
# AP33 mimotope peptide H6 [11] = target: T1, AP33 mimotope peptide H6
# E2 peptide C2 [12] = target: T2, E2 peptide C2
# E2 peptide B1 [13] = target: T3, E2 peptide B1; remark: listed apart in the source
# Peptide D3 [14] = target: T4, Peptide D3; remark: listed apart in the source
# AP33 mimotope peptide H6 [15] = target: T1, AP33 mimotope peptide H6
# E2 peptide C2 [16] = target: T2, E2 peptide C2
# E2 peptide B1 [17] = target: T3, E2 peptide B1; remark: listed apart in the source
# Peptide D3 [18] = target: T4, Peptide D3; remark: listed apart in the source
# AP33 mimotope peptide H6 [19] = target: T1, AP33 mimotope peptide H6
binder,measurement,setting,value
B1,EC50 (read off the curve),AP33 mimotope peptide H6 [1],~0.03 µg/mL
same,binding result,E2 peptide B1 [2],no binding (tested: about 1400 ng/ml)
same,EC50 (read off the curve),Peptide D3 [3],~0.05 µg/mL
same,EC50 (read off the curve),AP33 mimotope peptide H6 [4],~0.04 µg/mL
B2,binding result,E2 peptide B1 [5],no binding (tested: about 2200 ng/ml)
same,EC50 (read off the curve),Peptide D3 [6],~0.05 µg/mL
same,EC50 (read off the curve),AP33 mimotope peptide H6 [7],~0.04 µg/mL
same,binding result,E2 peptide C2 [8],binds
B3,binding result,E2 peptide B1 [9],no binding (tested: about 500 ng/ml)
same,EC50 (read off the curve),Peptide D3 [10],~0.02 µg/mL
same,EC50 (read off the curve),AP33 mimotope peptide H6 [11],~0.02 µg/mL
same,binding result,E2 peptide C2 [12],binds
B4,binding result,E2 peptide B1 [13],no binding (tested: about 800 ng/ml)
same,binding result,Peptide D3 [14],binds
same,binding result,AP33 mimotope peptide H6 [15],binds
same,binding result,E2 peptide C2 [16],binds
B5,binding result,E2 peptide B1 [17],no binding (tested: about 1000 ng/ml)
same,EC50 (read off the curve),Peptide D3 [18],~0.04 µg/mL
same,EC50 (read off the curve),AP33 mimotope peptide H6 [19],~0.03 µg/mL

# Reference: patent US20120027722A1 (MEDICAL RESEARCH COUNCIL, published 2012)
